Here are results for one molecule from US20080254496A1, “Methods for Detection of Fungal Disease” (priority 2005, published 2008).

A short description of this test: D-arabinitol oxidase enzyme activity assay (H2O2 formation coupled to horse radish peroxidase/TMB, absorbance at 650 nm). To be noted: ratio of oxidase activity with sorbitol as substrate to DA as substrate; protein extracts from E. coli, 10 mM sugar alcohol, pH 6.5, 23° C. The test is classed as biochemical. Here is the method:
The D-arabinitol oxidase enzyme activity is assayed by the formation of H2O2 during the enzyme reaction (FIG. 1) as coupled with a peroxidase indicator reaction that catalyzes the oxidation of 3,3′,5,5′-tetramethylbenzidine hydrochloride (TMB), producing a colored product. An increase in absorbance is a direct measure of D-arabinitol oxidase activity. Enzyme activity is assayed in crude extracts and in purified protein preparations. […] In this reaction, formation of H2O2 results in the formation of blue color measurable by reading the absorbance at 650 nanometers (nm). Absorbance at 650 nm is followed kinetically using a Tecan Rainbow spectrophotometer at room temperature (23° C.). Milli-absorbance units per minute (mA/min) are calculated as the increase in absorbance at 650 nm/minute×1000. It is recognized that researchers skilled in the art may perform the assay as an end-point assay, by stopping reactions at various times with a solution of acid to produce a yellow color, and reading the absorbance at 450 nm. […]
DNA sequences encoding an SaOx protein (SEQ ID NO:3) are used as starting material for error prone PCR. Error-prone PCR is accomplished by performing PCR from DNA templates using a non-proof reading DNA polymerase such as Taq Polymerase, or by using a GeneMorph II Random Mutagenesis Kit (Stratagene). […]

B1: SaOX (wild type + His-tag): Streptomyces avermitilis oxidase (SEQ ID NO:4), wild type with C-terminal His-tag (STOP423LEHHHHHH) (protein, listed as Streptomyces avermitilis)
chain: MTDAGTALTNWAGNITYSAKELHRPQSLDALRALVADSAKVRVLGSGHSFNEIAEPGADGVLLSLTALPPSVEVDTAARTVRVAGGVRYAELARVVHGHGLALPNMASLPHISVAGSVATGTHGSGVTNGSLASAVREVELVTADGSAVRIGRGDDRFDGAVTALGALGVVTALTLDLEPDYRVAQQVFTELPLAGLDFDAVAASAYSVSLFTGWRTSGFAQVWLKRRTDRPSADFPWAAPATEAMHPVPGMPAVNCTQQFGVPGPWHERLPHFRAEFTPSSGAELQSEYLLPRPYALDALHALDAVRETVAPVLQICEVRTVAADAQWLSPAYGRDTVALHFTWVEDLAAVLPVVRRVEEALDPFDPRPHWGKVFAVPARVLRGRYPRLGDFRALVDSLDPGGKFTNAFVREVLGSGDRPS
modifications: C-terminal LEHHHHHH His-tag
As for B1, the Sorb/DA came to 14.8.
